Measured values reported in article doi:10.1101/2020.04.01.839274 (bioRxiv, 2020).

What was measured:
[1] = target: Myc-tagged mouse EXOSC5 p.Leu206His (mouse, UniProt Q9CRA8 1-235, L206H); assay: co-IP
[2] = target: Myc-tagged mouse EXOSC5 p.Thr114Ile (mouse, UniProt Q9CRA8 1-235, T114I); assay: co-IP
Myc-tagged mouse EXOSC5 p.Thr114Ile, sequence (Q9CRA8 whole entry T114I): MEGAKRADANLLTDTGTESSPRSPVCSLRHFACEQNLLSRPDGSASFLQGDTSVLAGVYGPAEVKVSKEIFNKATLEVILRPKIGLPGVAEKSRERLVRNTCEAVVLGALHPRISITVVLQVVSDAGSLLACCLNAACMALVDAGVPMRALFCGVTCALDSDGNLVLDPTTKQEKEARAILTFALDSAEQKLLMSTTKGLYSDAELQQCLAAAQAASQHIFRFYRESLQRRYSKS

Myc-tagged mouse EXOSC5 p.Leu206His, sequence (Q9CRA8 whole entry L206H): as the sequence (Q9CRA8 whole entry T114I) above, with I114T, L206H counted along it

Row | Binder | % EXOSC subunit bound relative to wild-type EXOSC5 [1] [%] | % EXOSC subunit bound relative to wild-type EXOSC5 [2] [%]
1 | endogenous EXOSC10 (natural protein, mouse (endogenous in Neuro-2a), UniProt P56960 1-887, looked up) MAPPSPREHQSAPATSATKPDAEMVLPGFPDADSFVKFALGSVVAVTKASGGLPQFGDEYDFYRSFPAFQAFCETQGDRLLQCMSRVMQYHGCRSNIKDRSKVTELEDKFDLLVDTNDVILERVGMLLDEASGVNKHQQPVLPAGLQVPKTIVSSWNRKAGEYGKKAKSETFRLLHAKNIVRPQLRFREKIDNSNTPFLPKIFVKPNARKPLPLALSKERRERPQDRPEDLDVPPALADFIHQQRTQQVEQDMFAHPYQYELDHFTPPQSVLQRPKPQLYRAVGETPCHLVSSLDELVELNEKLLGCQEFAVDLEHHSYRSFLGLTCLMQISTRTEDFIVDTLELRSDMYILNESLTDPAIVKVFHGADSDIEWLQKDFGLYVVNMFDTHQAARLLNLARHSLDHLLRLYCGVESNKQYQLADWRIRPLPEEMLSYARDDTHYLLYIYDRMRLELWERGNHQPVQLQVVWQRSRDICLKKFVKPIFTDESYLELYRKQKKHLNSQQLTAFQLLFAWRDKTARREDESYGYVLPNHMMLKIAEELPKEPQGIIACCNPVPPLVRQQINEMHLLIQQAREMPLLKSENAAGVRKSGPLPSAERLENDLFGPHDCSHAPPDNYQNTSTDGTLPLQKQPSLFTEGKEETSVDAGCLLATAVITLFSEPNTEEGGKTPLTVAQKKAQNIMQSFENPFRMFLPSLEHKAHISQAAKFDPSSKIYEISNRWKLASQVQVQKEPKEATKKKVAEQTAAREEAKEEAAAGVLEQAIPVRQQAALENATKKRERATSDLRTIEQKQEKKRLKSSKKAKDPDPPGKDFSPYDYSQSDFRAFAGDSKSKPSSQFDPNKLAPSGKKGVGAKKCKQSVGNKSMSFAVGKSDRGFRHNWPKR | 21 | 40
2 | endogenous EXOSC9 (natural protein, mouse (endogenous in Neuro-2a), UniProt Q9JHI7 1-438, looked up) MKETPLSNCERRFLLRAIEEKKRLDGRQTYDYRNIRISFGTDYGCCIVELGKTRVLGQVSCELVSPKLNRATEGILFFNLELSQMAAPAFEPGRQSDLLVKLNRLLERCLRNSKCIDTESLCVVAGEKVWQIRVDLHLLNHDGNIIDAASIAAIVALCHFRRPDVSVQGEEVTLYTPEERDPVPLSIHHMPICVSFAFFQQGTYLLVDPNEREERVMDGLLVIAMNKHREICTIQSSGGIMLLKDQVFRCSKIAGVKVAEITELIQKALENDQRVRKEGGKFGFAESIANQRITAFKMETAPIDTSNIEERAEEIIAEAEPPPEVVSQPVLWTPGTAQIGDGIENSWGDLEDSEKEEEEEEGGIDEAVILDDTKMDTGEVSDIGSQGAPIVLSDSEEEEMIILEPEKNPKKIRAQTSANQKAPSKGQGKRKKKKRTAN | 16 | 24
3 | endogenous EXOSC3 (natural protein, mouse (endogenous in Neuro-2a), UniProt Q7TQK4 1-274, looked up) MAEVLSAGPESVAGCRARAVHKVLNQVVLPGEELVLPDHEDVDGLGGAGEQPLRLNAGARPRLRVVCGPGLRRCGDRLLVTKCGRLRHKEPSGGGGGVYWVDSQQKRYVPVKGDHVIGIVIAKSGDIFKVDVGGSEPASLSYLAFEGATKRNRPNVQVGDLIYGQCVVANKDMEPEMVCIDSCGRANGMGVIGQDGLLFKVTLGLIRKLLAPDCEIVQELGKLYPLEIVFGMNGRIWVKAKTIQQTLILANVLEACEHMTTEQRKQIFARLAES | 9 | 28
